According to PMC2139755:
Where “and” joins values, the source holds several entries; their conditions need not be identical. Identical values can stand only once. Like-named read-outs stand apart in the source and are kept apart here.

Columns and labels:
Test in all cases: radioligand binding
[1] = target: receptor for IgE on rat basophilic leukemia cells (RBL-1 cells) (rat (endogenous in RBL-1)) (UniProt P12371)
[2] = target: receptor for IgE on rat basophilic leukemia cells (RBL-1 cells) (rat (endogenous in RBL-1)) (UniProt P12371); remark: listed apart in the source
[3] = target: receptor for IgE on rat basophilic leukemia cells (RBL-1 cells) (rat (endogenous in RBL-1)) (UniProt P12371); remark: listed apart in the source

Chain of UniProt P12371 (P12371 24-245, chain 1 of 3): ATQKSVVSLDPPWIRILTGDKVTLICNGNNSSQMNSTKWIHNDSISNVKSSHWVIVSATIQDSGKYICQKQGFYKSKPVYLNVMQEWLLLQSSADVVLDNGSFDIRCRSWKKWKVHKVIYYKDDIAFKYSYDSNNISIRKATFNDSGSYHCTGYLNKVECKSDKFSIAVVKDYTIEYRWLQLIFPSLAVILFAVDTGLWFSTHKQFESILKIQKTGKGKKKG
Chain of UniProt P12371 (P13386 whole entry, chain 2 of 3, further chain): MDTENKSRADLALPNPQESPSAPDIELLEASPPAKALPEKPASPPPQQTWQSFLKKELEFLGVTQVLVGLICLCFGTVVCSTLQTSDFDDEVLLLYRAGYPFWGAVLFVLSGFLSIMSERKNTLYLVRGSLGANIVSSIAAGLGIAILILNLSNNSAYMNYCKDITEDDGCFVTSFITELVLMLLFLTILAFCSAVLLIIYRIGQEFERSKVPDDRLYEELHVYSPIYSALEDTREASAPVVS
Chain of UniProt P12371 (P20411 19-86, chain 3 of 3, further chain): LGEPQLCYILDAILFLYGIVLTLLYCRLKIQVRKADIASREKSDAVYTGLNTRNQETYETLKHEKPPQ

Ka [1]: 1.2e+10 M⁻¹
koff [1]: 4.7e-06 s⁻¹
kon [1]: 57000 M⁻¹ s⁻¹
Ka [2]: 1.2e+09 M⁻¹
koff [2]: 1.7e-05 s⁻¹
kon [2]: 21000 M⁻¹ s⁻¹
Ka [3]: > 6e+09 M⁻¹ and 6e+09 M⁻¹
half-life of dissociation [3]: 12 h
koff [3]: 1.6e-05 s⁻¹ and 1.4e-05 s⁻¹
percent of the labeled protein bound (active fraction) [3]: 70 to 80%
relative binding at 15 min (% of no additive), Ca++ 2 mM [3]: 92%
relative binding at 15 min (% of no additive), Ca++ 4 mM [3]: 88%
relative binding at 15 min (% of no additive), Ca++ 8 mM [3]: 80%
relative binding at 15 min (% of no additive), Ca++ and Mg++ 2, 2 mM [3]: 86%
relative binding at 15 min (% of no additive), EDTA 4 mM [3]: 98%
relative binding at 15 min (% of no additive), EDTA (4 mM) plus Ca++ 2 mM [3]: 78%
relative binding at 15 min (% of no additive), EDTA (4 mM) plus Ca++ 4 mM [3]: 43%
relative binding at 15 min (% of no additive), EDTA (4 mM) plus Mg++ 2 mM [3]: 85%
relative binding at 15 min (% of no additive), EDTA (4 mM) plus Mg++ 8 mM [3]: 44%
relative binding at 15 min (% of no additive), Mg++ 2 mM [3]: 93%
relative binding at 15 min (% of no additive), Mg++ 4 mM [3]: 89%
relative binding at 15 min (% of no additive), Mg++ 8 mM [3]: 82%
relative binding at 20 min (% of no additive), Al2(SO4)3 0.7 x 10^-7 M [3]: 110%
relative binding at 20 min (% of no additive), Al2(SO4)3 7.0 x 10^-7 M [3]: 108%
relative binding at 20 min (% of no additive), Al2(SO4)3 70 x 10^-7 M [3]: 105%
relative binding at 20 min (% of no additive), heparin 3.3 ug/ml [3]: 101%
relative binding at 20 min (% of no additive), heparin 10 ug/ml [3]: 110%
relative binding at 20 min (% of no additive), heparin 30 ug/ml [3]: 102%
relative binding at 20 min (% of no additive), human serum albumin 0.3 mg/ml [3]: 93%
relative binding at 20 min (% of no additive), phosphatidyl serine 12.5 ug/ml [3]: 105%
relative binding at 20 min (% of no additive), phosphatidyl serine 50 ug/ml [3]: 116%
relative binding at 20 min (% of no additive), phosphatidyl serine 200 ug/ml [3]: 135%
relative binding at 60 min (% of no additive), Al2(SO4)3 0.7 x 10^-7 M [3]: 101%
relative binding at 60 min (% of no additive), Al2(SO4)3 7.0 x 10^-7 M [3]: 97%
relative binding at 60 min (% of no additive), Al2(SO4)3 70 x 10^-7 M [3]: 96%
relative binding at 60 min (% of no additive), heparin 3.3 ug/ml [3]: 99%
relative binding at 60 min (% of no additive), heparin 10 ug/ml [3]: 97%
relative binding at 60 min (% of no additive), heparin 30 ug/ml [3]: 101%
relative binding at 60 min (% of no additive), human serum albumin 0.3 mg/ml [3]: 99%
relative binding at 60 min (% of no additive), phosphatidyl serine 12.5 ug/ml [3]: 112%
relative binding at 60 min (% of no additive), phosphatidyl serine 50 ug/ml [3]: 114%
relative binding at 60 min (% of no additive), phosphatidyl serine 200 ug/ml [3]: 121%
relative binding at 61 min (% of no additive), Ca++ 2 mM [3]: 95%
relative binding at 61 min (% of no additive), Ca++ 4 mM [3]: 91%
relative binding at 61 min (% of no additive), Ca++ 8 mM [3]: 85%
relative binding at 61 min (% of no additive), Ca++ and Mg++ 2, 2 mM [3]: 70%
relative binding at 61 min (% of no additive), EDTA 4 mM [3]: 96%
relative binding at 61 min (% of no additive), EDTA (4 mM) plus Ca++ 2 mM [3]: 88%
relative binding at 61 min (% of no additive), EDTA (4 mM) plus Ca++ 4 mM [3]: 46%
relative binding at 61 min (% of no additive), EDTA (4 mM) plus Mg++ 2 mM [3]: 97%
relative binding at 61 min (% of no additive), EDTA (4 mM) plus Mg++ 8 mM [3]: 53%
relative binding at 61 min (% of no additive), Mg++ 2 mM [3]: 70%
relative binding at 61 min (% of no additive), Mg++ 4 mM [3]: 64%
relative binding at 61 min (% of no additive), Mg++ 8 mM [3]: 62%
Substance: [125I]IgE (IR 162), 125I-labeled rat IgE myeloma protein (antibody)
